Measurements as given in the DeepSol protein solubility set.

assay: soluble on expression in E. coli; label from the status in PepcDB or PDB records

Sequence	soluble on expression in E. coli
MLSTIRYYYEHSLIEEKTKHQELSWQTPISRSLVTHDPSTGGIQLSKKNAMLNDAVTTTTTVEVFRAPTNTDMISLTPASNGGPPLLVRTNGPQYEQWNDRRVQTMMVDDDRRDLAKGVQWKERLIEESDRRYRDNGSDFYDEITEPTQFIHHDYRPKPLGFQTITHPIIMTGSRDDLRSQPPQYPAPLSPLYIVPDRHRNIANSVSPGQYSRRSNGYEDRRKDTEELRDERKRENEQNQNRERYHHRRSKSSNRDDASVSHRSLRHRSMSPASRRSFGTSLGGSQEFVIPAHSPIGSTLMLASPDPNELPGRPASAKSQEIFALYQTRDAYNRIVDQL	not soluble
MLSVRVAIVGGGLAGLYAAALLEARGVTDYVLLEARETFGGRIMSVPVAAEPDAQRDAAERFDLGATWFWPAMQPELLRVVTAFGVEAFEQYETGAMLVERARDQPAMRIDAGASMSGAWRMAGGMGALTDAISRRLDAARLRAGWRVQRLRKVDEGVDVEAEDGVGRARCWRAAQVLLAMPPRLAVRTVAFAPALPDVLALPWAACQTWMAPHAKYLAVYDMPFWREQGLSGGARSAAGPLAEIHDASGQQGGAALFGFLGVPAAARGRMAQADLRAACRAQLVRLFGERARWPRAEFLKDWADDVCTAVDADRCAQGSHAELPPALADAGAWKDRLIGIASEWSPAFGGYAAGAVDAARRGVEALLGSPDAGVPARRHQGRLWEAWRLEHHHHHH	soluble
MLTAATEVLAAADGPGSAESAWAWRDAPIATLVQRIQQLQNERAQAFRRLDQAHRQYLLSGQHYDFPSYRSVVHEVTQAFAAASREVLAVEAELAGPRAQPVLARHVRSLQELEQTRLATVALLQVMGTPGVSEQDPEKLHQLKIKVIKTMEAIGEVLQELRFDAESAE	soluble
MLTKVIEQAKIDHFTKWFERADKIVIVSHVSPDGDAIGSSLGLYHFLDSQEKTVNVIVPNAFPDFLRWMPGSKDILLYDRYKDFADKLIAEADVICCLDFNALKRIDEMADAVAASPARKVMIDHHLYPEEFCKITMSYPKISSTSELIFRLICRMGYFSDISKEGAECIYTGMMTDTGGFTYNSNNREIYFIISELLSKGIDKDDIYRKVYNTYSESRLRLMGYVLSNMVVYSDYNAALISLTKEEQSKFDYIKGDSEGFVNIPLTIKNVCFSCFLREDTEKPMIKISLRSVGTFPCNQLAAEFFNGGGHLNASGGEFFGTIEEAKAVFEQALEKYKPLLTAKSLEHHHHHH	soluble
MLTPRFDIQPAVSVILPTFDRAPLLASAIESVVAQNFAEWELIVVDDGSSDETFEIVDGYLNQHANIRYMKHRNRKAALSRNAGIQAAFGRYITFLDSDDLYLPEHLESRLHLLESMPEVRLISGGFVCEGDPWVRDRDDPEKLIHVSECIAGATMFGRRELFLDIGGFRALDYAEDTDLWERAARSHKVLKIDQPVSYIYRRSPGSITRTYKPAKPLEHHHHHH	soluble
MLTQEQIMNALKHVEDPELHKSVVELNMVRNIQMNGTEVKLEVVLTIQGCPLKAKIQQDIEESLHAIGASKVEVTFGSMTQEERAALTEKLKRNTRTETGMPSMLRPDSGVRFITVTSGKGGVGKSTVTINLATALARMGKKVGILDADIYGFSIPAMMETNKKPTMIDQTAIPVISHGVKIMSMGFFTEGNNPVMWRGPMLNKWIQNFLANTHWGELDYLLLDLPPGTGDVAIDVAAMIPQAKEIIVTTPHNIASFVASRVGVMAKHTKHEILGIVENMAYYEEQDGSKNYLFGKGGGEMLAEQLQTEVIAKIPFAKREENNGSSVYDEDSLVGEVFTSLAEDIIYRGLEHHHHHH	soluble
MLTYETWEENETKGALSVLSWAYKEYKSEIVYACSFGVEGMVLLDLINQVNPSAKVVFLDTNVHFQETYELIQKVRERFPSLNIIEKQPKLTLDEQDKLHGDKLWESNPNLCCKIRKILPLEESLANEKAWISGLRREQSETRKHTKFINQDHRFQSIKVCPLIHWTWKEVWRYVYKHSLPYNSLHDIGYPSIGCEKCTLPVGEGGDSRDGRWAGKVKTECGLHYQ	not soluble
MLVGERLENEPNFYQEIDFLKHLAGINGVPVVHKHFQYEQKRVLVMDKYLENLEQFRKRKEDEKLSPRVVIKLAFRLVSILEHIHRKGVVHQDIKLDNVVFGAKVGNKLDIVLIDYGIAAFTKPKPPRDLVDGALHCTTDFSSSVYASPGLVQGLKGDPVDDLQMLSFMLLWASKYNPFGEDSLESLRKKKEFIAKPSIFTQGDYKFLRPVISKIMEQKRSKRPDYKAISKKCANKDNYFNPDTAVHLGNAYEFF	not soluble
MLVLRLFNTQKARLSQLPKASNEIVKDFISKLANAAGSRDKLSDCFTHDFQFFGCGYTVNKAPFVEKHLATPNPEPLIPKCSSFNGNDSKISFTASHQDGPRENIVDLVISREEKDSPWRLQSGKITNCP	not soluble
MLVVPARLHRWPPEVQDLFGREGPLVLEIGFGDGRFTAELARSRPDWLVLGAEVSAASVLRALRRMRREGLANVRLYHGQGPFALRNLVLPGTLDQVIVNFPDPWPKKRHQERRLLREAFFRRLSTRLKPGGSLLLTTDHEEYFRFALEEAERTGLYRVEVRPPPEAHLRTKYALKWKEAGRAFFHAAFIKLREDPAPWPPLRRYDVAHALLSGELPQDLALEKTPVRLKEGVAVFLEVARGKEGFYVLTHVEEEDLTQDLLLEVRKSARGVYAGVSRFGSPLITEAVKGAVRALVDRLEAHGLEVVQDHT	soluble
MLWTENITLRFGGVTALDNVSVEVRRGEILGIIGPNGAGKTSLLNVITGVYKPQRGRVYFKGRDITGLKPHQRITLGLSRTFQHSELFHSMTVLENIMVRLHPWTRGSILEKALWAFRAKRWEVEARERAEHVIDLLDLHEHRHSPIGALPPGIQKKVDLAGALAQNPEVVLMDEPMAGLSKEEKEDIVRAIIETSETMHTTMVLIEHDMEVVTDVCDRVVVMDYGKVIFEGPPHEAVADERVRKAYLGE	soluble
MLYIFTPTFNRGYRLSYLYDSLCNQTNKNFIWLIVDDGSEDSTKEIVSNYIKENKVSIVYLYKRNGGKHSAYNLAMRYMQPSDYHVCVDSDDWLLEDAVEIIFKDLESLTLSNRYVGLVYPRYSLNQGNNWLNPKILEVNIPDLKYKYHLKIETCIVINNAYLVDFEFPCFEGENFLSEEIMYIYLSKKGYFCPQNRKIYCFDYLEDGLTSNIFKLWRKNFKGTIFSLENSYMYVMSFPNIFDRWWSAIKIKMNIQALKMTTLGVIPTLKSEEAGWKILLGFSYLWKVARFKKSELEHHHHHH	soluble
MMAVENAVDYPISVRLPSYVVEKIDELVKKRKFRSRSDFIKFAVTFALGQIMMEEARERAKNEPEELEKERKEAWMRLRAGDFSKEDEETLELLKKVDARYKRLGGRS	soluble
MMEDGAEGEIGDMLSMCNKHPFFDDDDSERFVILYKICTVFDEPVEGKQPSSAVIVYEELAKSGGYCCRPSKMEESYVKVDQVVQEMAKITSKCAIHLSSHALKNTIQIVRTAFSGEYTQNDKDGNVPEGNEVKFDGDETVMKTTVNCEKLVEDINEFMEEDRQMYGALEIQIMEESERNIDGYAYFSFLKFVPCGNIHLRIPPLEGSCTKEVINEVIETIMRNFWNYCGDS	not soluble
MMEIKRVLKDRLSARVCVIGAGPSGIAAIKNLQEHGITNVTVFEKNNQIGGNWVYDEQNEHSSVYETTHIISSKRWSEFEDFPMPVDYPDYPSHSQLLKYFQSYVEHFHLDRYIRFNTVVQKVHRLDDNTWHVIYEDAQGIHEACYDYLLVANGHHWDPFMPVYPGVFDGEILHSHQYKKASIFKGKRVLVVGGGNSACDVAVEISRVAPGTCISMRRGYHIFPKFIFGKPTDVAVAKIQWMPSWLRQKFISLVIRGLQGRYAKYKLMKPDCGPLEIHPTINSELLYFIRHGKIHPRSGISRFEGNTVHFTDRTQGEFDTIIFATGYQISFPFFDKSCIDFSNSTTIPLYRKMMHPEFENLYFIGLCQPQGCIWPLADYQSKIVARIIAGTLKRPDQLHRKIAKEINKPHHRFKSHMRHALEVDYHIFRKELLEMLGQKHKRLKFYPLEHHHHHH	soluble
